In paper PMC11039470, “Catalytic specificity and crystal structure of cystathionine γ-lyase from Pseudomonas aeruginosa” (Scientific Reports, 2024):

What was measured:
[1] = target: T1, cystathionine γ-lyase (PaCGL) (Pseudomonas aeruginosa, UniProt Q9I6A0); experiment: intrinsic fluorescence titration of apo-PaCGL; […] Å crystal structure; type: binding
T1 construct: gene PA0400; 394-residue PaCGL (PAO1_PA0400), 6x-His tagged; homotetramer

[2] = target: PaCGL F114A variant, N-terminal 6x-His tag (Pseudomonas aeruginosa); experiment: SEC; gel filtration on Sephacryl S-200 16/60 HR in 20 mM sodium phosphate pH 8.0, 150 mM NaCl, 0.1 mM DTT; calibration curve; self-association (tetramer)
[3] = target: PaCGL F114N variant ("humanized"), N-terminal 6x-His tag (Pseudomonas aeruginosa); experiment: as above
[4] = system: N[C@@H](CCSC[C@H](N)C(=O)O)C(=O)O; experiment: DTNB assay steady-state kinetics (Km); type: biochemical, Pseudomonas aeruginosa; details: PLP PLP-containing active site
N[C@@H](CS)C(=O)O = experiment: purified protein; type: biochemical, Pseudomonas aeruginosa; details: PLP PLP-containing active site
[5] = target: cystathionine γ-lyase from Pseudomonas aeruginosa (PaCGL), wild type, N-terminal 6x-His tag (Pseudomonas aeruginosa); experiment: SEC; gel filtration on Sephacryl S-200 16/60 HR in 20 mM sodium phosphate pH 8.0, 150 mM NaCl, 0.1 mM DTT; calibration curve; self-association (tetramer)
[6] = substrate: N[C@@H](CCSC[C@H](N)C(=O)O)C(=O)O; experiment: DTNB assay steady-state kinetics (Km); UV-Vis and CD spectra; LC-MS/MS; type: biochemical, Pseudomonas aeruginosa; details: PLP PLP-containing active site (chamber-1)
[7] = substrate: N[C@@H](CCS)C(=O)O; experiment: lead acetate H2S assay kinetics (Km); LC-MS/MS; type: biochemical, Pseudomonas aeruginosa; details: PLP PLP-containing active site
purified protein = substrate: N[C@@H](CS)C(=O)O; experiment: purified protein; type: biochemical, Pseudomonas aeruginosa; details: PLP amino acid site […] of the active site (second L-Cys at site […])

## Cc1ncc(COP(=O)(O)O)c(C=O)c1O [PLP]
[1]
  Kd: 150 ± 10 nM

## PaCGL F114A variant, N-terminal 6x-His tag (enzyme)
[2]
  stoichiometry N: 4

## PaCGL F114N variant ("humanized"), N-terminal 6x-His tag (enzyme)
[3]
  stoichiometry N: 4

## cystathionine γ-lyase (PaCGL) (Pseudomonas aeruginosa PAO1; F114A)
[4]
  Km: 600 ± 100 µM
  kcat: 3.2 ± 0.2 s⁻¹
  kcat/Km: 5300 ± 1200 M⁻¹ s⁻¹
N[C@@H](CS)C(=O)O
  Km: 490 ± 10 µM
  kcat: 0.13 ± 0.01 s⁻¹
  kcat/Km: 270 ± 30 M⁻¹ s⁻¹

## cystathionine γ-lyase (PaCGL) (Pseudomonas aeruginosa PAO1; F114N)
[4]
  Km: 500 ± 100 µM
  kcat: 3.2 ± 0.1 s⁻¹
  kcat/Km: 6400 ± 1500 M⁻¹ s⁻¹
N[C@@H](CS)C(=O)O
  Km: 1600 ± 300 µM
  kcat: 0.38 ± 0.06 s⁻¹
  kcat/Km: 240 ± 80 M⁻¹ s⁻¹

## cystathionine γ-lyase from Pseudomonas aeruginosa (PaCGL), wild type, N-terminal 6x-His tag (enzyme)
[5]
  stoichiometry N: 4

B1: cystathionine γ-lyase (PaCGL) (Pseudomonas aeruginosa PAO1) (protein)
chain: MSQHDQHPDAPAQAFATRVIHAGQAPDPSTGAIMPPIYANSTYIQESPGVHKGLDYGRSHNPTRWALERCVADLEGGTQAFAFASGLAAISSVLELLDAGSHIVSGNDLYGGTFRLFERVRRRSAGHRFSFVDPTDLQAFEAALTPETRMVWVETPSNPLLRLTDLRAIAQLCRARGIISVADNTFASPYIQRPLELGFDVVVHSTTKYLNGHSDVIGGIAIVGDNPDLRERLGFLQNSVGAISGPFDAFLTLRGVKTLALRMERHCSNALALAQWLERQPQVARVYYPGLASHPQHELAKRQMRGFGGMISLDLRCDLAGARRFLENVRIFSLAESLGGVESLIEHPAIMTHASIPAETRADLGIGDSLIRLSVGVEALEDLQADLAQALAKI
notes: PaCGL with N-terminal 6x-His tag
[6]
  Km: 300 ± 40 µM
  kcat: 5.2 ± 0.2 s⁻¹
  kcat/Km: 17000 ± 3000 M⁻¹ s⁻¹
[7]
  Km: 1700 ± 300 µM
  kcat: 0.42 ± 0.04 s⁻¹
  kcat/Km: 250 ± 70 M⁻¹ s⁻¹
Purified protein
  Km: 430 ± 30 µM
